± gives the uncertainty stated by the source.
B1: Tumor protein 63, residues 545 to 610; numbered along this chain, Q9H3D4 (parent)
chain: TDCSIVSFLARLGCSSCLDYFTTQGLTTIYQIEHYSMDDLASLKIPEQFRHAIWKGILDHRQLHEF

Variants of: B1
Experiment: abundance fitness (aPCA) (normalised: wild type 0, dead -1); higher = more abundant; growth selection in yeast, the domain comes from the species named
Conditions: Homo sapiens

TDCSIVSFLARLGCSSCLDYFTTQGLTTIYQIEHYSMDDLASLKIPEQFRHAIWKGILDHRELHEF and TDCSIVSFLARLGCSSCLDYFTRQGLTTIYQIEHYSMDDLASLKIPEQFRHAIWKGILDHRQLHEF are within error of each other in abundance fitness: 0.013 ± 0.04 for the first, -0.02 ± 0.022 for the second.

TDCSIVSFLARLGCSSCLDYFTTQGLTTIYQIEHYSMDDLASLKIPEQFRHAIWKGILDHRQLHEH and TDCSIVSFLARLGCSCCLDYFTTQGLTTIYQIEHYSMDDLASLKIPEQFRHAIWKGILDHRQLHEF are within error of each other in abundance fitness: 0.027 ± 0.056 for the first, 0.016 ± 0.033 for the second.

TDCSIVSFLARLGCSRCLDYFTTQGLTTIYQIEHYSMDDLASLKIPEQFRHAIWKGILDHRQLHEF and TDCEIVSFLARLGCSSCLDYFTTQGLTTIYQIEHYSMDDLASLKIPEQFRHAIWKGILDHRQLHEF are within error of each other in abundance fitness: -0.092 ± 0.024 for the first, -0.066 ± 0.026 for the second.

Going from TDCGIVSFLARLGCSSCLDYFTTQGLTTIYQIEHYSMDDLASLKIPEQFRHAIWKGILDHRQLHEF to TDCSIVSFLARLGCSSCLDYFTTQGLTTIYQIEHYSMDDLASLRIPEQFRHAIWKGILDHRQLHEF, the abundance fitness rises from -0.104 ± 0.019 to -0.014 ± 0.02.

TDCSIVSFLARLGCSSCLDYFTTQGLTTIKQIEHYSMDDLASLKIPEQFRHAIWKGILDHRQLHEF and TDCSIVSFLARLGCSSCLDYFTTQGLTTIIQIEHYSMDDLASLKIPEQFRHAIWKGILDHRQLHEF are within error of each other in abundance fitness: 0.001 ± 0.019 for the first, -0.049 ± 0.043 for the second.

TDCSIVSFLARLGCSSCLDYFTTQGLTTIFQIEHYSMDDLASLKIPEQFRHAIWKGILDHRQLHEF and TDCSIVSFLARLGCSSCLDYFTTQGLTTINQIEHYSMDDLASLKIPEQFRHAIWKGILDHRQLHEF are within error of each other in abundance fitness: -0.112 ± 0.086 for the first, -0.046 ± 0.068 for the second.

TDCSIVSFLARLGCSSCLDYFTTQGLTTIEQIEHYSMDDLASLKIPEQFRHAIWKGILDHRQLHEF and TDCSIVSFLARLGCSSCLDYFTTQGLTTITQIEHYSMDDLASLKIPEQFRHAIWKGILDHRQLHEF are within error of each other in abundance fitness: -0.016 ± 0.031 for the first, -0.001 ± 0.034 for the second.

TDCSIVSFLARLGCSSCLDYFTTQGLTTIYQIEHYSMDDLASLKIPEQFRHAIWKGILDHRQLHTF and TDCSIVSFLARLGCSSCLDYFTTQGLTTIYQIEHYSMDDLASLKIPEQFRHAIWKGILDHRQDHEF are within error of each other in abundance fitness: -0.049 ± 0.066 for the first, 0.004 ± 0.031 for the second.

Going from TDCSIVSFLARLGCSSCLDYFTTQGLTTIYQIEHISMDDLASLKIPEQFRHAIWKGILDHRQLHEF to TDCSIVSFLARLGCSSCLDEFTTQGLTTIYQIEHYSMDDLASLKIPEQFRHAIWKGILDHRQLHEF, the abundance fitness rises from -0.257 ± 0.061 to -0.139 ± 0.03.

First: TDCSIVPFLARLGCSSCLDYFTTQGLTTIYQIEHYSMDDLASLKIPEQFRHAIWKGILDHRQLHEF
Second: TDCSIVSFLARLGCSSCLDYFTTQGLTTIYQIEHYSPDDLASLKIPEQFRHAIWKGILDHRQLHEF
The abundance fitness of the first is lower: -0.113 ± 0.036 for the first, -0.014 ± 0.037 for the second.

Going from TDCSIVSFLARLGCSSCLDYFTTQGLTTIYQIEHYSMDDLASLKIPEQFYHAIWKGILDHRQLHEF to TDCSIVSFLARLGCSSCLDYFTTQGLTTIYQIEHYSMDDLASLKIPEQFHHAIWKGILDHRQLHEF, the abundance fitness rises from -0.174 ± 0.036 to -0.03 ± 0.084.

TDCSIVSFLARLGCSSCLDYFTTQGLTTIYQIEHYSMDDLASLKIPEQFRHAIWKGILDRRQLHEF and TDCSIVSFLARLGCSSCLDYFTTQGLTTIYQIEHYSMDDLASLKIPEQFRDAIWKGILDHRQLHEF are within error of each other in abundance fitness: 0.012 ± 0.026 for the first, -0.028 ± 0.036 for the second.

TDCSIVSFLARLGCSSCLDYFTTQGLTTIYQIEHYSMDDLASLKIPEQFRCAIWKGILDHRQLHEF and TDCSIVSFLARLGCSSCLDYFTTQGLTTIYQIEHYSMDDLASLKIPEQFRHAIWKGILDHHQLHEF are within error of each other in abundance fitness: -0.034 ± 0.029 for the first, -0.1 ± 0.054 for the second.

Going from TDCSTVSFLARLGCSSCLDYFTTQGLTTIYQIEHYSMDDLASLKIPEQFRHAIWKGILDHRQLHEF to TDCSHVSFLARLGCSSCLDYFTTQGLTTIYQIEHYSMDDLASLKIPEQFRHAIWKGILDHRQLHEF, the abundance fitness falls from -0.479 ± 0.025 to -0.647 ± 0.066.

Compared with TDCSQVSFLARLGCSSCLDYFTTQGLTTIYQIEHYSMDDLASLKIPEQFRHAIWKGILDHRQLHEF, TDCSIVSFLARLGCSSCLDYFTTQGLHTIYQIEHYSMDDLASLKIPEQFRHAIWKGILDHRQLHEF is higher in abundance fitness: -0.973 ± 0.081 for the first, -0.005 ± 0.061 for the second.

TDCSIVSFLARLGCSSCLDYFTTQGLQTIYQIEHYSMDDLASLKIPEQFRHAIWKGILDHRQLHEF and TDCSIVSFLARLGCSSCLDYFTTQGLITIYQIEHYSMDDLASLKIPEQFRHAIWKGILDHRQLHEF are within error of each other in abundance fitness: -0.049 ± 0.035 for the first, -0.075 ± 0.038 for the second.

Compared with TDCSIVSFLARLGCSSCLDYFTTQGLMTIYQIEHYSMDDLASLKIPEQFRHAIWKGILDHRQLHEF, TDCSIVSFLARLFCSSCLDYFTTQGLTTIYQIEHYSMDDLASLKIPEQFRHAIWKGILDHRQLHEF is lower in abundance fitness: -0.107 ± 0.033 for the first, -0.45 ± 0.05 for the second.

TDCSIVSFLARLACSSCLDYFTTQGLTTIYQIEHYSMDDLASLKIPEQFRHAIWKGILDHRQLHEF and TDCSIVSFLARLGCSSCLDYFTTQGLTTIYQIEHYSMDDLASLKIPEQFRHAIWKGILNHRQLHEF are within error of each other in abundance fitness: -0.117 ± 0.037 for the first, -0.079 ± 0.04 for the second.

Compared with TDCSIVSFLARLGCSSCLDYFTTQGLTTIYQIEHYSMDDLASLKIPEQFRHAIWKGILIHRQLHEF, TDCSIVSFLARLGCSSCLDYFTTQGLTTIYQIEHYSMDDLASLKIGEQFRHAIWKGILDHRQLHEF is lower in abundance fitness: -0.084 ± 0.034 for the first, -0.289 ± 0.023 for the second.

TDCSIVSFLARLGCSSCLDYFTTQGLTTIYQIEHYSMDDLASLKINEQFRHAIWKGILDHRQLHEF and TDCSIVSFLARLGNSSCLDYFTTQGLTTIYQIEHYSMDDLASLKIPEQFRHAIWKGILDHRQLHEF are within error of each other in abundance fitness: -0.396 ± 0.043 for the first, -0.34 ± 0.037 for the second.

TDCSIVSFLARLGCSSCLDYFTTQGLTTIYQIEHYSMDDLASLKIPEQFRHAIWKGIIDHRQLHEF showed an abundance fitness of 0 ± 0.057.

From the Human Domainome abundance scans (Beltran et al. 2025)
